In CN113234145A (THE FIFTH AFFILIATED HOSPITAL SUN YAT SEN UNIV; ZHUHAI …, dated 2021):

Columns and labels:
[1] = target: T1, SARS-CoV-2病毒N蛋白(全长) (SARS-CoV-2, UniProt P0DTC9 1-419)
[2] = target: T1, SARS-CoV-2病毒N蛋白(全长); assay: SPR (Biacore X100), antibody captured as ligand, N protein as analyte
[3] = target: MERS-CoV N蛋白 (MERS-CoV, UniProt K9N4V7 1-411); assay: SPR (Biacore X100), antibody captured as ligand, MERS-CoV N protein as analyte
[4] = target: SARS-CoV N蛋白 (SARS-CoV, UniProt P59595 1-422); assay: SPR (Biacore X100), antibody captured as ligand, SARS-CoV N protein as analyte

Binder | EC50 [1] | also measured
nCoV396 (antibody, V domains shown) VH: QVQLVESGGGVVQPGRSLRLSCAASGFTFSSYIMHWVRQAPGKGLEWVAVISYDGSNEAYADSVKGRFTISRDNSKNTLYLQMSSLRAEDTGVYYCARETGDYSSSWYDSWGRGTLVTVSS VL: QLVLTQSPSASASLGASVKLTCTLSSGHSNYAIAWHQQQPEKGPRYLMKVNSDGSHTKGDGIPDRFSGSSSGAERYLTISSLQSEDEADYYCQTWGTGIQVFGGGTKLTVL | 3.2 ng/mL | Kd [2]: 1.02 nM; Kd [3]: 7.43 nM; Kd [4]: 7.44 nM
nCoV424 (antibody, V domains shown) VH: QVQLVQSGAEVKKPGASVKLSCKASGYTFSSYYIHWVRQAPGQGLEWLGIINPGGDITAYAQKFQGRVSLTRDTSTSTVYMQLSSLRYEDTAVYYCAREEGDVSTSVFDNWGQGTLVTVSS VL: QLVLTQSPSASASLGASIKLTCTLSSGHRSYAIAWHQQQPGKGPRYLMKLNSDGSHIKGDGVPDRFSGSSSGAERYLSISSLQSEDEADYHCQTWGTGIQVFGGGTRLTVL | 11.8 ng/mL | 
nCoV457 (antibody, V domains shown) VH: QVQLVESGGGVVQPGRSLRLSCVASGFTFSRYIIHWVRQAPGKGLEWVAVISYDGTAALYADTVKGRFTISRDNSKNTLYLQMNSLRADDTAVYYCARETGEMSTSYFEYWGQGTLVTVSS VL: QLVLTQSPSASASLGASVKLTCTLSSRHNNYAIAWHQQQPEKGPRFLMKVNSDGSHTKGDGIPDRFSGSSSGAERYLTISSLQSDDEADYYCQTWGTGNQVFGGGTKVTVL | 2.6 ng/mL | 
nCoV433 (antibody, V domains shown) VH: QVQLVESGGGVVQPGRSLRLSCAASGFTFSNYAMHWVRQAPGKGLEWVTIISYDGTNIYEDSVKGRFTISRDNSKNTLYLQMNSLRAEDTAVYYCAREVFDSSGSWFDYWGQGTLVTVSS VL: QLVLTQSPSASASLGASVRLTCSLSSGHRNYAIAWHQQQPEKGPRYLMKLNSDGSHTKGDGVPDRFSGSSSGAERYLTISSLQSEDEADYYCQTWGTGIQVFGGGTKVTVL | 5.3 ng/mL | 
nCoV425 (antibody, V domains shown) VH: QVQLVESGGGVVQPGRSLRLSCAASGFTFSNYAMHWVRQPPGKGLEWVAIISYEGRTEYADSMKGRFTISRDNSKSAVYLQMNSLRPEDTAVYYCAREVFDISGSWFDYWGQGTLVTVSS VL: QLVLTQSPSASASLGASVKLTCTLSSRHSNYAIAWHQQQPEKGPRYLMKLNSDGSHTKGDGIPDRFSGSSSGAERYLTISSLHSEDEADYYCQTWGTGIQVFGGGTKVTVV | 5.2 ng/mL | 
nCoV416 (antibody, V domains shown) VH: QVQLVQSGAVLKRPGASVKLSCKASGYIFTSYHIHWVRQAPGQGLEWLGTINPRGDVTAYAQKFQGRVSLTRDTSTTTVYMELSSLRSEDTAIYYCAREHGDVSSSVFDHWGQGTLVSVSS VL: QLVLTQSPSASASLGASIKLTCTLSSGHSNYAIAWHKQQPEKGLRYLMKVNSDGSHNKGDGIPDRFSGSSSGPERYLIISSLQSDDEADYHCQTWASGIQVFGGGTKLTVL | 3.3 ng/mL | 
nCoV402 (antibody, V domains shown) VH: QVQLVESGGGVVQPGGSLRLSCAASGFTFSRFTMHWVRQAPGKGLEWVAIISFNGSDKLYVDSVKGRFTVSRDSSKEMLYLQMSSLRHEDTAVYYCARETEDYTSSYFDYWGQGTLVTVSS VL: QLVLTQSPSASASLGASVKLTCTLSSGHNNYAIAWHQQQPQTGPRFLMKVNSDGSHVKGDGIPDRFTGSSSGTGRYLTISSLQSEDEADYYCQTWASGIQVFGGGTKLTVL | 6.3 ng/mL | 
nCoV454 (antibody, V domains shown) VH: QVQLVESGGGVVQPGGSLRLSCVTSGFTFSNYAMHWVRQAPGKGLEWVAIISYDGSHLYGDSVKGRFTISRDNSKNTLYLEMSSLRNEDTATYYCARETPEVSGSWIDYWGQGALVIVSS VL: QLVLTQSPSASASLGASVNLTCTLTSGHNSYAIAWHQQQPNKGPRYLMKLNSDGSHDKGDGIPDRFSGSSSGTERYLTISSLQSEDEADYYCQTWGTGVQVFGGGTKLTVL | 5 ng/mL | 
nCoV400 (antibody, V domains shown) VH: EVQLLESGGGLVQPGGSLRLSCAASGFTFSSYAMSWVRQAPGKGLEWVSVIYSGGSSTYYADSVKGRFTISRDNSKNTLYLQMNSLRAEDTAVYYCAKDHLELSAAGSQINYYYYGMDVWGQGTTVTVSS VL: SYELTQPPSVSVSPGQTARITCSGDALPKQYAYWYQQKPGQAPVLVIYKDSERPSGIPERFSGSSSGTTVTLTISGVQAEDEADYYCQSADSSGTSHWVFGGGTKLTVL | 1110 ng/mL | 
